In the assay the target is growth hormone receptor (GHR) (UniProt P10912).
Sequence of UniProt P10912 (P10912 19-638): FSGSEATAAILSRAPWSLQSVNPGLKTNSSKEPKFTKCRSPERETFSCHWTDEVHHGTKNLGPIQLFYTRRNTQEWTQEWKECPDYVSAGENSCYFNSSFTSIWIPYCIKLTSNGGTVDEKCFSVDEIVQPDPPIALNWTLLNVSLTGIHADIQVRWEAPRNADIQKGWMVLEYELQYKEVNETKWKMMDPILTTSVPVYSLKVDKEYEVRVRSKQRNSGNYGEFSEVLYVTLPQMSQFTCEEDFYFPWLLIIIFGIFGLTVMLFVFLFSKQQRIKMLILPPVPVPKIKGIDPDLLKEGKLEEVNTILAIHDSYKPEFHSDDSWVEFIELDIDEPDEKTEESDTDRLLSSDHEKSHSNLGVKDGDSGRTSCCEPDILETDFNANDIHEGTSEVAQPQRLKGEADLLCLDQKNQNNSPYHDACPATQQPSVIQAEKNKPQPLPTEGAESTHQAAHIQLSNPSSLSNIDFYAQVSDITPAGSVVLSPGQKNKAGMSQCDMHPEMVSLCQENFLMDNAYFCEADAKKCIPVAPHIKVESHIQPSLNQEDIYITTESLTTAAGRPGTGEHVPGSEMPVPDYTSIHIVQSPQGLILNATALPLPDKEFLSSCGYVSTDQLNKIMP

As to “PEG-rhGH isomer P1 (PEGylated recombinant human growth hormone, modified at the N-terminus) (from UniProt P01241 27-217) (ligand)”, the bioactivity relative to the PEG-rhGH reference, reporter gene assay (luciferase, HepG2/IGF-1 cells) is 71.1%.
In the case of “PEG-rhGH isomer P2 (PEGylated recombinant human growth hormone, modified at K140) (from UniProt P01241 27-217) (ligand)” it was 163%.
“PEG-rhGH isomer P4 (PEGylated recombinant human growth hormone, modified at K38) (from UniProt P01241 27-217) (ligand)”: the bioactivity relative to the PEG-rhGH reference, reporter gene assay (luciferase, HepG2/IGF-1 cells) came out at 29%.
In the case of “PEG-rhGH isomer P3 (PEGylated recombinant human growth hormone, modified at K145) (from UniProt P01241 27-217) (ligand)” it was 143%; in that of “PEG-rhGH isomer P5 (PEGylated recombinant human growth hormone, modified at K158) (from UniProt P01241 27-217) (ligand)”, 107%.

For the origin of these results see paper PMC11820146.
